One substance from paper PMC4971492 can be followed below.

For the experiment, the target named is Bio-GFP-tagged KIF21A STALK (whole KIF21A stalk domain) (human). Kind of experiment: single-molecule GFP counting (TIRF); HEK293T cell extracts with Bio-GFP-tagged constructs, molecules immobilised on coverslips, initial fluorescence intensities against monomeric GFP and dimeric EB1-GFP; room temperature.

Chain of Bio-GFP-tagged KIF21A STALK (whole KIF21A stalk domain) (domain or fragment) (Q7Z4S6 whole entry, the tested form may be a part): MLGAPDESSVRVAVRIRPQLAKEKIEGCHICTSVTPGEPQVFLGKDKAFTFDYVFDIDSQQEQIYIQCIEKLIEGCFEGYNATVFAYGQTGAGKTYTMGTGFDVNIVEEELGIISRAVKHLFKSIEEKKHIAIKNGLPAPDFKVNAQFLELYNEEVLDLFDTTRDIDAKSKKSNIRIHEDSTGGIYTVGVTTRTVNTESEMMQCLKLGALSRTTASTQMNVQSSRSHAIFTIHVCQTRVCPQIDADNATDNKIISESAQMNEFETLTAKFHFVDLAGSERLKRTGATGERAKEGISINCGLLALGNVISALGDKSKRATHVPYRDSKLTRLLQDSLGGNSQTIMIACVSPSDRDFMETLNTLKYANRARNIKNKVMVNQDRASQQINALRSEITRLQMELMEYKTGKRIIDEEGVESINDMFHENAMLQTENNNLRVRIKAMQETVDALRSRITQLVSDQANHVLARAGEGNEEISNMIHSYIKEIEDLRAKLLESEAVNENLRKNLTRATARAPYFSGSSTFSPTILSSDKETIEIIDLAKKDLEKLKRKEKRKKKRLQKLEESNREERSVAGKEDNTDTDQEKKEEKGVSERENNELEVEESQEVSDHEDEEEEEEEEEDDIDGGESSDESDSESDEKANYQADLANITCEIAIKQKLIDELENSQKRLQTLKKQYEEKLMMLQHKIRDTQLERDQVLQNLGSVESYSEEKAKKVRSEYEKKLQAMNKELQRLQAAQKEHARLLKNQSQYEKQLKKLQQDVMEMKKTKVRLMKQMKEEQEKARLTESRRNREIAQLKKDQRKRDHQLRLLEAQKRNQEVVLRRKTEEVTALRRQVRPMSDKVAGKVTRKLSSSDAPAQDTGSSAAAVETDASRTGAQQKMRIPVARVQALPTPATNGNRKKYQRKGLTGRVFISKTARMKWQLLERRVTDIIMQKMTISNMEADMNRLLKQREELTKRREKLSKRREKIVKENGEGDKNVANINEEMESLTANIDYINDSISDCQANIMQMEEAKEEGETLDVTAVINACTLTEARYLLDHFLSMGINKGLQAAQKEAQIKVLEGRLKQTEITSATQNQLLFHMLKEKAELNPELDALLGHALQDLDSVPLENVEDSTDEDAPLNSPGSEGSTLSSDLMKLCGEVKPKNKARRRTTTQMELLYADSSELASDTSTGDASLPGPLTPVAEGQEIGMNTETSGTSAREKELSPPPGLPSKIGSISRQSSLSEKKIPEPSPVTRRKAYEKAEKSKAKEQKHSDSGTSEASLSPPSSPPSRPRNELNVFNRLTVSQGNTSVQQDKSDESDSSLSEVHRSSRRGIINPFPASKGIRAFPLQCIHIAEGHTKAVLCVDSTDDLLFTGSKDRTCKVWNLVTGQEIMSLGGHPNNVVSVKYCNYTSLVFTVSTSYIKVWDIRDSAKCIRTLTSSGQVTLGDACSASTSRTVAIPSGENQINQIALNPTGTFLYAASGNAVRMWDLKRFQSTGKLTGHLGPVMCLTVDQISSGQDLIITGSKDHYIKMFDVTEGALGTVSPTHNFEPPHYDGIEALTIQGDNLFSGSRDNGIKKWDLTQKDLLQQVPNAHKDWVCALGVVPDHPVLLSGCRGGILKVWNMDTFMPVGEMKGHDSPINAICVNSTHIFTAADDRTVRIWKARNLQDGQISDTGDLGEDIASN

What is called stoichiometry N is the number of molecules, sites or subunits per partner or assembly. “Bio-GFP-tagged KIF21A STALK (whole KIF21A stalk domain) (domain or fragment)” had a stoichiometry N of 2.
